From the DeepSol protein solubility set

Experiment: soluble on expression in E. coli; label from the status in PepcDB or PDB records

Row | Sequence | soluble on expression in E. coli
1 | MGSDKIHHHHHHMKKNILHIHGFNSSPLSLKAEQTRKYMAKNFPNVGFYCPQLATTPANAMSQLEQLIETHDSNAKWYLIGSSLGGYFAHYLAKKYDCLAVLVNPAITPYELLHDYIGEQVNPYTEEVYQVTEDHMQQLKALEQTAPTIDCTEKNNYLVMVQTGDEVLNYQQAVEKYQYCRLIVQEGGDHSFINFDNCLPTISDFFQLDNTKRINSR | not soluble
2 | MGHHHHHHSHMIEVLTTTDSQKLLHQLNALLEQESRCQPKVCGLRLIESAHDNGLRMTARLRDFEVKDLLSLTQFFGFDTETFSLAVNLLDRFLSKMKVQPKHLGCVGLSCFYLAVKSIEEERNVPLATDLIRISQYRFTVSDLMRMEKIVLEKVCWKVKATTAFQFLQLYYSLLQENLPLERRNSINFERLEAQLKACHCRIIFSKAKPSVLALSIIALEIQAQKCVELTEGIECLQKHSKINGRDLTFWQELVSKCLTEYSSNKCSKPNVQKLKWIVSGRTARQLKHSYYRITHLPTIPEMVP | not soluble
3 | MEKRKHFTPEQKAKIVIEVIKGERTLNEIAAEYGIHPNLLSRWKTEFISNAGRVFSKETDEVEKVKQSYEKEKDELLKQIGQLSYEVAWLKKKSGLL | not soluble
4 | MGSDKIHHHHHHMSILNVEHLSHGFGDRAIFEDVSFRLLKGEHIGLVGANGEGKSTFMNIITGRLMPDEGKIEWAKKVRVGYLDQHTALEKGMTIGSVLSSAFDFLYDMENEMNDIYARLGDVDEDEMNKLMEEAGTIQDMLTMHDFYMIDAKVEEVARALGLLDLGLDKDVTDLSGGQRTKVLMGKLLLEKPDILLLDEPTNYLDVEHIEWLKRYLNDYENAFILISHDIPFLNSVVNLIYHMDNKKLDRYVGDYDKFMEVYEMKKAQLEAAYNKQQQEIKELKDFVARNKARVATRNMAMSRQKKLDKMDVIELAAEKPKPEFNFKTARTPGRYIFQTNGLVIGYDDPLSSALDLEMERGQKIVLTGANGIGKTTLLKSILGLIKPLSGSVTLGDYLEIGYFEQEMDQSVTTTCIEEIWNEFPAFSQYEVRSALAKCGLTTKHIESQVRVLSGGEQAKVRLCKLINRETNILLLDEPTNHLDVDAKDELKRALKEYKGSILMVCHEPDFYDGLATDVWDCSKWTTRL | not soluble
5 | MSISTEQTILTQLKTIRTKRASTTGEQKWLQQHITEANLRRLLPDISIVGLHLLSELEAGPQTGIDLATNLGVTRGGVTRAAKRLVTQGLIGSFQQPDDHKKIFYRLTPSGRKLARYHDKMHATRNHQAITLLHEHYSPAELAVIQRFLADLTDYEA | not soluble
6 | LVHLSVHNYAIVEHLDLELDRGMSVITGETGAGKSIMLDALGLTLGDRADSGVVRPGADKADILATFDLGDIPEAEAWLKERDLDNDGPCILRRVITAEGRSRSYINGSPCPQGDLKALGELLIDIHSQHEHQSLLKTDTHRRLLDEYAGATDLARQVHLAAQRWRQTRQELERL | not soluble
7 | MGMFERDTEIYLDRDALREDYQPENLVGRDTELNRYRAALQPVINGEQPNNIFLYGKTGVGKTAGTRYLIDHLEEDAAKYEDIDLTVKMLNCDGLSSSYQIATRLVNEFRDETSQISTTGYPRATVYDMLWTELDSCGGTIYIVLDEVDHIEDDSILYQLPRARANDNLSSAKIGIIGISNDFSFRDDLSPKVKSSLCEEEIQFPA | not soluble
8 | VEAHPSLTLFSQLRIEHEDMAIAEDDWAWLRHKGHLRLGAALDETSPFNVRLDDENYEGITADVATLVGQLLGMRIKVVSFDTHADAVAALAAGKIDLLGSHYSSAGDSSLVLSQPYARDRLAVFKRMGEKRNSPEDLAGLSVAVAREHVGELRQRFPRARFVVFGSHDEAVAAVAFGHTDLYLDDVLSAYHRINRSYYGYVRFERFADARLEGGYGFLLRRGDTNLLRVVNSAIGAINQDRLESIARRWVGSGSLPTGQRIALTPQESRWIARHPVVRLVINDDLAPLAFFNSDETFSGIASDLLDMISRRTGLHFQVTPRSGGFPEQIGVLARKEADLAIMSRSSKREEMLRFTRSFLSTSYVLVTRADDKGRAEIPGSLDGKRIAIPAGHVGMQQVRERYPQASMVEVGVALDAMNLVYEGRADAAVVPLVTARYYIVRLFRERLAIADLVPIGAATAHFAVRRGDAELQSILDKALLSISPDDLSDIVNRWRSPPGMSGQT | soluble
9 | SPFMFRPRKQVFQTQGAAVSSMAQTLLPNDLASKAMGSAFTALLDANEDAQKAMKIIKTLSSLSDAWENVKETLNNPEFWKQLLSRCVQLIAGMTIAVMHPDPLTLLCLGTLTAAEITSQTSLCEEIAAKFKTIFITPPPRFPTISLFQQQSPLKQVNDIFSLAKNLDWAVKTVEKVVDWFGTWIVQEEKEQTLDQLLQRFPEHAKRISDLRNGMAAYVECKESFDFFEKLYNQAVKEKRTGIAAVCEKFRQKHDHATARCEPVVIVLRGDAGQGKSLSSQVIAQAVSKTIFGRQSVYSLPPDSDFFDGYENQFAAIMDDLGQNPDGSDFTTFCQMVSTTNFLPNMASLERKGTPFTSQLVVATTNLPEFRPVTIAHYPAVERRITFDYSVSAGPVCSKTEAGYKVLDVERAFRPTGEAPLPCFQNNCLFLEKAGLQFRDNRTKEIISLVDVIERAVARIERKKKVLTTVQTLVAQ | soluble
10 | MDSIYRDAGYDVLKVSAKTGEGIDELVDYLEGFICILAGPSGVGKSSILSRLTGEELRTQEVSEKTERGRHTTTGVRLIPFGKGSFVGDTPGFSKVEATMFVKPREVRNYFREFLRYQCKYPDCTHTNEPGCAVKEAVKNGEISCERYKSYLKIIKVYLEEIKELCREDLEHHHHHH | not soluble
11 | MVKVIFFDLDDTLVDTSKLAEIARKNAIENMIRHGLPVDFETAYSELIELIKEYGSNFPYHFDYLLRRLDLPYNPKWISAGVIAYHNTKFAYLREVPGARKVLIRLKELGYELGIITDGNPVKQWEKILRLELDDFFEHVIISDFEGVKKPHPKIFKKALKAFNVKPEEALMVGDRLYSDIYGAKRVGMKTVWFRYGKHSERELEYRKYADYEIDNLESLLEVLARESSSNKKVHPPRQQI | soluble
12 | MCIKGCKRRIHPTRLLMLIRTEAPADILVVDQLLKNVFATEAEADLVMALRENGQRTLSLVACDDEGEIVGHVMFSPVTLEGEDLNWQGLAPLAVKEEYRRQGIGAELVKEGLSSLGELGYPACVVLGDPAYYSRFGFEDAARYSLRCAWDVPQGAFQVVALWERELDGRCGVIEYSQEFAAL | not soluble
13 | MKGKMAIVISTLNNPWFVVLAETAKQRAEQLGYEATIFDSQNDTAKESAHFDAIIAAGYDAIIFNPTDADGSIANVKRAKEAGIPVFCVDRGINARGLAVAQIYSDNYYGGVLMGEYFVKFLKEKYPDAKEIPYAELLGILSAQPTWDRSNGFHSVVDQYPEFKMVAQQSAEFDRDTAYKVTEQILQAHPEIKAIWCGNDAMALGAMKACEAAGRTDIYIFGFDGAEDVINAIKEGKQIVATIMQFPKLMARLAVEWADQYLRGERSFPEIVPVTVELVTRENIDKYTAYGRKEEGSHHHHHH | soluble
14 | MTVEVDEYLNFCGTINEFISAHMLCLGMSVNNYEHRYIWDEILTSKSIKIRPFPFEKTARRSISGMIIKDDYETTLAYNSNMGEKRKNFTISHELIHAMYHLDSENKVFTDTKDTLSYSLADILPEFQANIGASSILLPEPVLINELKKGTPPYFISNRYGISEQAIFMRLLQQMQASFEASYVAAYDTANKIMNGNSKNLAIELGRNLERKILYSNPFYEAITL | not soluble
15 | MSLEPIGNVIKKIVKERNLGSKEDILNQVLQDPDINAFLQANKAKIDQKMIKNSMSGLYEFYSQKRNPSKVMAGYAPQLFLNGKVIDVRYAPTQAKVAQDRKRAAKKRLHLIDLPGRLHDVELSKIDITDDRNQVLTLIYDFLNKYSKDSHQQGLYLSGDFGVGKTYILAGLANYVVTNMEKDVVFLHVPTFIAGLASHFGDNSLQDEIRRLSECDLLILDDIGAETLSQWSRDDVLGVILQARMDNVLPTFFSSNLDMEALESHFEETRNATDPVKARRLMQRIRFLAKEVVVSGPDRRNSLREGHHHHHH | soluble
16 | SDSQSSILEENLEKILRGEGLEFDSVAEQVDPVTLRKNVCYIVGAVIFNSKEEVLMVQEAKRECYGRWYLPAGRMEECESILEALQREVREEAGIDCQPITLLLVQEQGPRWVRFIFLAEETGGSLKTTAEADDESLQAHWWDRKSPLPLRAHDILSLIDAGLKYRRNPWFPVTQPVDFPCHVVCQRLFLTFISSRADADDRLWLLMSNNNTSHHPRLPIVVSFRTYISKAVSKLIEDCMPSSYISVHIRGILGVQHNGRIPGKTDGICFNTLVLLENTEEGAEIGSPPSLETDCYRWQEVTNQGLKAKIIERIKDGSVLPFQSL | soluble
17 | MRNELNSNEYNLMASRQSRKILTGTLAAMENVKIGQDENVDCGVVFYDEFKILIPIREMNVSREDKRVIRSMIGAEIDFIVMEFDDENRTAIASRKEAMELRKNLELKKHKVGEKIFVRVTSVGRNNCRVDCYGIEYRVPINEIDYGYIDKVDKYVQVGDVVPAIIKELDIDNNIVVVSIKEAKEDPYLGIVKSLNKGGEYLGVVTGIKDYGIFLTIRKGVNCLCPFPNWANFSPAVGEKFVVRIKSINYDEKKINANLMRPINQRNKYNPTWGLGLEHHHHHH | soluble
18 | MSEIVVSKFGGTSVADFDAMNRSADIVLSDANVRLVVLSASAGITNLLVALAEGLEPGERFEKLDAIRNIQFAILERLRYPNVIREEIERLLENITVLAEAAALATSPALTDELVSHGELMSTLLFVEILRERDVQAQWFDVRKVMRTNDRFGRAEPDVAALAELAALQLLPRLNEGLVITQGFIGSENKGRTTTLGRGGSDYTAALLAEALHASRVDIWTDVPGIYTTDPRVVSAAKRIDEIAFAEAAEMATFGAKVLHPATLLPAVRSDIPVFVGSSKDPRAGGTLVCNKTENPPLFRALALRRNQTLLTLHSLNMLHSRGFLAEVFGILARHNISVDLITTSEVSVALTLDTTGSTSTGDTLLTQSLLMELSALCRVEVEEGLALVALIGNDLSKACGVGKEVFGVLEPFNIRMICYGASSHNLCFLVPGEDAEQVVQKLHSNLFE | not soluble
19 | MSLNHVRPWRNIHRRKSRQIMVGNVPVGGDAPISVQTMTNTITADAPATIAQVLRAAEAGADIVRVSVPDEASTRALKEIVAASPVPIVADIHFHYKRAIEAAEAGAACLRINPGNIGDASRVREVIKAARDHGCSMRIGVNAGSLEKHLLDKYGEPCPEAMVESGLDHIKILQDNDFHEFKISVKASDVFLAAAAYQALADATDAPIHLGITEAGGLTAGTVKSAVGLGNLLWSGIGDTLRVSLSADPVEEVKVGYEILKSLGLRHRGVTIISCPSCARQGFDVIKTVAELEDRLAHVTTSMSLSIIGCVVNGPGEALMTDIGFTGGGNGSGMVYLAGKQAHKLGSERMIDEIVSMVESRAAEIEAEKLAAAEAAE | not soluble
20 | MGSDKIHHHHHHTEETAKVVPMAVITPAINQLTDQEKAEGWALLFDGKTTKGWRGAHKDAFPDHGWMVKDGELIVQKSDGSESTNGGDIVTEGEYSAFEFSVDFKITEGANSGIKYFVTEQEKQKGSAYGLEFQLLDDAKHPDAKLYTTFPGSRTLGSLYDLKKSENIHFNGVGEWNTAVVKVFPNNHVEHWLNGVKVLEYERGSKEFRDLVKGSKYADPSYNAGGAFGEAPKGHILLQDHGDEVAFRNIKVKELK | not soluble
21 | MAHHHHHHMLQRSLARLCAAAQRQGNKALAAEGRSFALVNREVTAIKEHIQSLVTNTNNEVLDHAGKYVLAAGGKLMRPALVVLMAHAMLPLDVSAHLLEEPIGSLDEVTPGTILPFLRLAEVTELIHTASLLHDDVIDNTDTRRGRPALHKVYDAKRAVLAGDYMLARASFYIATLQVPRIVILMTTALEELTSGELMQMDGCFDIPRYEQKSFCKTASLIANSLASTAVLAGPGNEALEQTAFDFGKHLGIAFQILDDCLDITGDEKMLGKPKLVDMKEGIATIPVLLVARRNAKVAEMVCRRFAEPGDAEFCLEAVEKEGAVAEAMHRADEHCRLGLESLHKLHHSPARDALESALSMVMNRKS | not soluble
